“Also recorded” adds a separate entry of the source.
What was measured:
FGFR1c-βKlotho-FGF21 = target: T1, FGFR1c-βKlotho-FGF21 (UniProt P11362+Q99N32); assay: SPR specificity: FGFR1c-βKlotho binding to immobilized FGF21^29-209; design: species or system human FGFR1c, murine βKlotho, human FGF21; conditions: 10-fold molar excess over FGFR1c-βKlotho
T1 construct: the ectodomain of murine βKlotho (F53 to L995) was expressed in HEK293 cells; FLAG (C); made in house; host or cells: E. coli (FGFR1c, FGF21); HEK293 (βKlotho ectodomain)
T1 sequence (P11362 142-365): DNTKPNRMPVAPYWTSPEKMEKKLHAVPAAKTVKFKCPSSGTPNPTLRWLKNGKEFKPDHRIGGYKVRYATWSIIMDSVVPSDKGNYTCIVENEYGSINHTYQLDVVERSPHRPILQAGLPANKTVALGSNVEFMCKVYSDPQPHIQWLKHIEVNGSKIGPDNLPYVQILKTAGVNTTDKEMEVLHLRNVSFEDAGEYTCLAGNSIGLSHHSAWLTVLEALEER
T1 sequence (Q99N32 53-995): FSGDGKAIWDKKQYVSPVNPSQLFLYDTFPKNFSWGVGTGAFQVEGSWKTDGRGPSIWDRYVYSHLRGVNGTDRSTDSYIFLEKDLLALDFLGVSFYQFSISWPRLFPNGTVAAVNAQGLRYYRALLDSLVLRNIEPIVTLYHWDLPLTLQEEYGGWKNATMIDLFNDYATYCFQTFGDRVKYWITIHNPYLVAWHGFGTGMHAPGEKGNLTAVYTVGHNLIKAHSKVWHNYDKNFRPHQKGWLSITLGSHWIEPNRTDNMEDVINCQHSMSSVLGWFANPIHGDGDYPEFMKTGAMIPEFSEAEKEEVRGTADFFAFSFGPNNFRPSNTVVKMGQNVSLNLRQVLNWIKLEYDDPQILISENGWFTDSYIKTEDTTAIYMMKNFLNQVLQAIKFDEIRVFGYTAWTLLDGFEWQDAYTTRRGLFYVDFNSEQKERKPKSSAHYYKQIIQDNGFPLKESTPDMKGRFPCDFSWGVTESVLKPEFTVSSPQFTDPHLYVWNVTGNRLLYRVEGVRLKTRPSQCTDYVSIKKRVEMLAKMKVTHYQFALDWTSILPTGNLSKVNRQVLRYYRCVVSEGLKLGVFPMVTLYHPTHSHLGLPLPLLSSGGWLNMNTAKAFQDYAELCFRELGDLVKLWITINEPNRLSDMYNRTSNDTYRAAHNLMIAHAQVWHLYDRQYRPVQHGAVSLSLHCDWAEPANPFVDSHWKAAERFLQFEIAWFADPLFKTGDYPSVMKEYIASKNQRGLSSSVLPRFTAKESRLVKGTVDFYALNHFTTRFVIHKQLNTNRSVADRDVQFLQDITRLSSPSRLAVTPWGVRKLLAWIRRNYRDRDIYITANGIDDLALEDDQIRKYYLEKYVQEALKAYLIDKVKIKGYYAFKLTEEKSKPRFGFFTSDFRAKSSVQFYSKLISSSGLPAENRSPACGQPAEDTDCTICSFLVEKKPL

[1] = tested on: binary FGFR-Klotho complex; assay: Pull-down / co-precipitation of FGF23 proteins with FGFR-Klotho complex; assay type: binding; conditions: HEK293-Klotho cell lysate
Chain of binary FGFR-Klotho complex (O35082 35-1014, one chain of several): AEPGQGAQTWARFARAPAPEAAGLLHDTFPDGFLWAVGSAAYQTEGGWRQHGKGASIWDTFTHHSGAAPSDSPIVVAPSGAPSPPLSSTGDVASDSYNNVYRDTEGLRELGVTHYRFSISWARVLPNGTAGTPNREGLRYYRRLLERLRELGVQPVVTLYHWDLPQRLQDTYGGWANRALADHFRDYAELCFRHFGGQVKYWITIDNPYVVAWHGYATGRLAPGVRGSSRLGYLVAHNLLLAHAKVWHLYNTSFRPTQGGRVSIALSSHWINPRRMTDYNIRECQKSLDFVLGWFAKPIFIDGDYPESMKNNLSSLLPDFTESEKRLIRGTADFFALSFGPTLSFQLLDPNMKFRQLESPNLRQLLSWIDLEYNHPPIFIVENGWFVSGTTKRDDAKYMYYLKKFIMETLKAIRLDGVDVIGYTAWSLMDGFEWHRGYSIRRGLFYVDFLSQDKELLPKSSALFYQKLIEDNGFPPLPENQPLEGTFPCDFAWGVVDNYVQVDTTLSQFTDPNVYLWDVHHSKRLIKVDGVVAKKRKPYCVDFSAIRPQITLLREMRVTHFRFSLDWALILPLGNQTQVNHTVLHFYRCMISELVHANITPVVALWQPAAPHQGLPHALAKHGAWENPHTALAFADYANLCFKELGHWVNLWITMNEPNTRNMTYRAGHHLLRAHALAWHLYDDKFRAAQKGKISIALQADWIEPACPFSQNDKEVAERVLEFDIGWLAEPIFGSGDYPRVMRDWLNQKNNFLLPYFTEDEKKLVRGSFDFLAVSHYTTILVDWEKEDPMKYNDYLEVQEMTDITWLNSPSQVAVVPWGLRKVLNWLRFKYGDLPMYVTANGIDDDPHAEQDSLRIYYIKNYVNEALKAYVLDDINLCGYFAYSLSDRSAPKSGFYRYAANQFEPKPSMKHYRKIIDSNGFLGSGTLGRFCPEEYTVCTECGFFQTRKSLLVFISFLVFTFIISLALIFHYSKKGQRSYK
Method: A pull-down assay may also be used to confirm the existence of a protein:protein interaction (i.e. FGF23^180-251 binding to the binary FGFR-Klotho complex). One aspect of the present invention utilizes pull-down assays. These assays involved subconfluent cultures of a HEK293 cell line ectopically expressing the FLAG-tagged membrane-spanning form of murine Klotho, which were harvested and lysed. Cell lysate was incubated with FGF23^28-251, FGF23^28-200, FGF23^28-179, FGF23^180-251, or protein sample buffer, and binary complexes of Klotho and endogenous FGFR were isolated from cell lysate using anti-FLAG M2 agarose beads. […]
In parallel, subconfluent HEK293-Klotho cells (Kurosu et al., “Regulation of Fibroblast Growth Factor-23 Signaling by Klotho,” J Biol Chem 281(10):6120-6123 (2006), which is hereby incorporated by reference in its entirety) were transfected with expression vectors for V5-tagged FGFR1c, FGFR3c, or FGFR4 (Kurosu et al., “Regulation of Fibroblast Growth Factor-23 Signaling by Klotho,” J Biol Chem 281(10):6120-6123 (2006), which is hereby incorporated by reference in its entirety) and binding of FGF23 proteins/peptides to Klotho-FGFR complexes isolated from cell lysate was analyzed. […]

B1: FGF23^180-251: 72-amino acid C-terminal tail of human FGF23 (S180 to I251), expressed in E. coli (protein, listed as Homo sapiens)
chain: SAEDDSERDPLNVLKPRARMTPAPASCSQELPSAEDNSPMASDPLGVVRGGRVNTHAGGTGPEGCRPFAKFI
inhibition of FGFR1c-βKlotho binding to immobilized FGF21 (FGFR1c-βKlotho-FGF21): did not affect; also recorded: no inhibition | co-precipitation with the binary FGFR-Klotho complex [1]: co-precipitated with each of the three binary FGFR-Klotho complexes

— patent publication US8889621B2, “Inhibiting binding of FGF23 to the binary FGFR-Klotho complex for the treatment of hypophosphatemia” (New York University, priority 2009, dated 2014)
